Drawing on paper PMC4398645, this text covers stoichiometry N for one molecule.

The term stoichiometry N denotes the number of molecules, sites or subunits per partner or assembly.

This assay has as its target T1, His6-Arc (Activity-regulated cytoskeleton-associated protein, full length) (mouse), Q9WV31.
T1 chain: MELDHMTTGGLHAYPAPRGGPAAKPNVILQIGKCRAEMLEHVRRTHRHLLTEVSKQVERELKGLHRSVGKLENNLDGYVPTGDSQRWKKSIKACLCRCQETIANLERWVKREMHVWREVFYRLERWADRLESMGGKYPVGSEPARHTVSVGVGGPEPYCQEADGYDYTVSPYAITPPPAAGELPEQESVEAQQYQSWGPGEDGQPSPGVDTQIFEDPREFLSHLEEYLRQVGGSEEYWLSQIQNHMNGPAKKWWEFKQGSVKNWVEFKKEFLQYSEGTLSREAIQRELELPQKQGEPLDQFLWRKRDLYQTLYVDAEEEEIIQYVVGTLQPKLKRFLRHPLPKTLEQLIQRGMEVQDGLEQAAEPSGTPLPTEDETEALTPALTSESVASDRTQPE
As to the kind of experiment: SEC + other: sucrose density gradient centrifugation. The settings on record: remark: other sources report otherwise.

B1: His6-Arc (Activity-regulated cytoskeleton-associated protein, full length), Q9WV31 1-396 (natural protein)
chain: MELDHMTTGGLHAYPAPRGGPAAKPNVILQIGKCRAEMLEHVRRTHRHLLTEVSKQVERELKGLHRSVGKLENNLDGYVPTGDSQRWKKSIKACLCRCQETIANLERWVKREMHVWREVFYRLERWADRLESMGGKYPVGSEPARHTVSVGVGGPEPYCQEADGYDYTVSPYAITPPPAAGELPEQESVEAQQYQSWGPGEDGQPSPGVDTQIFEDPREFLSHLEEYLRQVGGSEEYWLSQIQNHMNGPAKKWWEFKQGSVKNWVEFKKEFLQYSEGTLSREAIQRELELPQKQGEPLDQFLWRKRDLYQTLYVDAEEEEIIQYVVGTLQPKLKRFLRHPLPKTLEQLIQRGMEVQDGLEQAAEPSGTPLPTEDETEALTPALTSESVASDRTQPE
In the case of B1, the stoichiometry N came out at 2.
